Test [1] concerns the target T1, mouse FcRn (mouse, UniProt Q61559 22-297).
T1 construct: also called mFcRn
As to the kind of experiment: SPR (Biacore); relative to mIgG1. The protocol:
(§1) Next, the binding to mFcRn was evaluated according to Reference Example 4-4.
(§2) Kinetic analysis was conducted on mouse FcRn and each antibody using Biacore T100, Biacore T200, Biacore A100, and Biacore 4000 (GE Healthcare Japan Corp.). An appropriate amount of protein L (ACTIGEN) was immobilized on Sensor Chip CM4 (GE Healthcare Japan Corp.) by the amine coupling method. The antibody of interest was captured onto the chip. Next, a diluted FcRn solution or a running buffer (as a control solution) was injected thereto so that the mouse FcRn was allowed to interact with the antibody captured on the sensor chip. The running buffer used was 50 mmol/L sodium phosphate, 150 mmol/L NaCl, and 0.05% (w/v) Tween 20 (pH 6.0), and each buffer was also used for diluting FcRn. 10 mmol/L glycine-HCl (pH 1.5) was used to regenerate the chip. The assay was conducted at 25° C. for all samples. From the sensorgram obtained by the assay, an association rate constant ka (1/Ms) and a dissociation rate constant […] (1/s) were calculated as kinetic parameters. The KD (M) of each antibody for mouse FcRn was calculated on the basis of the parameters. Biacore Evaluation Software (GE Healthcare Japan Corp.) was used in the calculation of each parameter.
(In SPR one partner is held on a chip, and binding of the other changes the refractive index at the surface.)

Test [2] deals with T1, mouse FcRn. As to the kind of experiment: SPR (Biacore), antibody captured by protein L, mouse FcRn as analyte, pH 6.0, 25 C. As for the experimental part: as §1, §2
The target in test [3] is T2, mouse FcgRI extracellular domain, C-terminal His tag (mouse, UniProt P26151 25-297).
T2 construct: extracellular domain; also called mFcgRI; mFcγRI; not shown: C-terminal His tag
T2 sequence (looked up): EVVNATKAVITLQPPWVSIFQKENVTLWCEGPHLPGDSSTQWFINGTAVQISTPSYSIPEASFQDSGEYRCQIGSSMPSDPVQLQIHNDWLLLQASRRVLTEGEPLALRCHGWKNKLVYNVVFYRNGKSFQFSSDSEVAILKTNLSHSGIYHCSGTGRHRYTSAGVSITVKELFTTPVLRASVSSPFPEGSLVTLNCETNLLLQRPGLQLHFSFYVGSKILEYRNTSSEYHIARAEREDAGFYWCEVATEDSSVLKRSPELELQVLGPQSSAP
As to the kind of experiment: SPR (Biacore), antibody captured on chip, mFcgR extracellular domain as analyte. The protocol:
(§3) The two types of bispecific antibodies (MRAH-mIgG1mP3/MRAL-mk1//H54-mIgG1mN3/L28-mk1 and MRAH-mIgG1mP4/MRAL-mk1//H54-mIgG1mN4/L28-mk1) prepared by mouse IgG-type Fab arm exchange were tested for their binding to mouse FcgR and mouse FcRn according to Reference Example 4-3. Also, MRAH-mIgG1/MRAL-mk1 was prepared according to Reference Example 1 and assayed as a control.

Test [4] addresses T3, mouse FcgRIV extracellular domain, C-terminal His tag (mouse, UniProt A0A0B4J1G0 21-203).
T3 construct: also called mFcgRIV; mFcγRIV
T3 sequence: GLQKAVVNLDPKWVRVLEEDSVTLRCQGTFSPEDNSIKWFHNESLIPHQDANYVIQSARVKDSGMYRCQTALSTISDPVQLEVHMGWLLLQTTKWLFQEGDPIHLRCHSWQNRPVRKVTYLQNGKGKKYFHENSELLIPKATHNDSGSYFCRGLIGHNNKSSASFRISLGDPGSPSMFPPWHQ
The description is as above. As for the experimental part: as §3

Test [5] addresses T4, mouse FcgRIII extracellular domain, C-terminal His tag (mouse, UniProt P08508 31-215).
T4 construct: extracellular domain; also called mFcgRIII; mFcγRIII; not shown: C-terminal His tag
T4 sequence (looked up): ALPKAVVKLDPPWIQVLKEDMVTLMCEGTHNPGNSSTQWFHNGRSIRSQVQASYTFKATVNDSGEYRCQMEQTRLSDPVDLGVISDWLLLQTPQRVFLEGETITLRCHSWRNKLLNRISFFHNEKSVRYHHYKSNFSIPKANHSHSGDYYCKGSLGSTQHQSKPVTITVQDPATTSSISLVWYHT
The experiment in a line: SPR (Biacore); binding activity relative to naturally occurring mIgG1. The protocol: as §3

Test [6] concerns the target T5, mouse FcgRII extracellular domain, C-terminal His tag (mouse, UniProt P08101 30-210).
T5 construct: extracellular domain; also called mFcgRII; mFcγRII; not shown: C-terminal His tag
T5 sequence (looked up): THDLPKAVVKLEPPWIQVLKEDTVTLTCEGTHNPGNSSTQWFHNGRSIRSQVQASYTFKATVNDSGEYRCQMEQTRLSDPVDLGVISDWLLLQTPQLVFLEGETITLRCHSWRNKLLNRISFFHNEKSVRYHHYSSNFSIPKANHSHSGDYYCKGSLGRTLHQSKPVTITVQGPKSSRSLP
The test is described as above. The protocol: as §3

Test [7] concerns the target T4, mouse FcgRIII extracellular domain, …. The experiment in a line: SPR (Biacore), antibody captured on chip, His-tagged mFcgR extracellular domain as analyte, 25 C. The protocol: as §3
Test [8] addresses T5, mouse FcgRII extracellular domain, …. The description is as above. As for the experimental part: as §3
For test [9], the target named is T4, mouse FcgRIII extracellular domain, …. As to the kind of experiment: SPR (Biacore); relative to mIgG1 (the reference itself). As for the experimental part: as §3
The target in test [10] is T5, mouse FcgRII extracellular domain, …. The description is as above. The protocol: as §3
For test [11], the target named is T1, mouse FcRn. The test is described as above. As for the experimental part:
as §1, §2

Changes are numbered by the printed parent chain. Numbers in names are those of the source.

T1 sequence (Q61559 22-297): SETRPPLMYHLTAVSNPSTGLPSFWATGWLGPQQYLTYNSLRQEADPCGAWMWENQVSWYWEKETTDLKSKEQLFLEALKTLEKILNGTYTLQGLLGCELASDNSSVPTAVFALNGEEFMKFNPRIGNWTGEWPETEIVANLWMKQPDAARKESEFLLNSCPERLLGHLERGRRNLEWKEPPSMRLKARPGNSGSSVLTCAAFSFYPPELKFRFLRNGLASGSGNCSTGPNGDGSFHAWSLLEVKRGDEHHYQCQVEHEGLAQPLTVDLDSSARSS

B1: MRAH-mIgG1mP3/MRAL-mk1//H54-mIgG1mN3/L28-mk1 (bispecific antibody)
heavy 1: QVQLQESGPGLVRPSQTLSLTCTVSGYSITSDHAWSWVRQPPGRGLEWIGYISYSGITTYNPSLKSRVTMLRDTSKNQFSLRLSSVTAADTAVYYCARSLARTTAMDYWGQGSLVTVSSAKTTPPSVYPLAPGSAAQTNSMVTLGCLVKGYFPEPVTVTWNSGSLSSGVHTFPAVLQSDLYTLSSSVTVPSSTWPSETVTCNVAHPASSTKVDKKIVPRDCGCKPCICTVPEVSSVFIFPPKPKDVLTITLTPKVTCVVVDISKDDPEVQFSWFVDDVEVHTAQTQPREEQFNSTFRSVSELPIMHQDWLNGKEFKCRVNSAAFPAPIEKTISKTKGRPKAPQVYTIPPPKEQMAKDKVSLTCMITDFFPEDITVEWQWNGQPAENYKNTQPIMKTDGSYFVYSKLNVQKSNWEAGNTFTCSVLHEGLHNHHTEKSLSHSPGK
light 1: DIQMTQSPSSLSASVGDRVTITCRASQDISSYLNWYQQKPGKAPKLLIYYTSRLHSGVPSRFSGSGSGTDFTFTISSLQPEDIATYYCQQGNTLPYTFGQGTKVEIKRADAAPTVSIFPPSSEQLTSGGASVVCFLNNFYPKDINVKWKIDGSERQNGVLNSWTDQDSKDSTYSMSSTLTLTKDEYERHNSYTCEATHKTSTSPIVKSFNRNEC
heavy 2: QVQLQESGPGLVKPSETLSLTCAVSGYSISDDQAWSWVRQPPGEGLEWIGYISYSGITNYNPSLKGRVTISRDTSKNQFSLKLSSVTAADTAAYYCARSLARTTAMDYWGEGTLVTVSSAKTTPPSVYPLAPGSAAQTNSMVTLGCLVKGYFPEPVTVTWNSGSLSSGVHTFPAVLQSDLYTLSSSVTVPSSTWPSETVTCNVAHPASSTKVDKKIVPRDCGCKPCICTVPEVSSVFIFPPKPKDVLTITLTPKVTCVVVDISKDDPEVQFSWFVDDVEVHTAQTQPREEQFNSTFRSVSELPIMHQDWLNGKEFKCRVNSAAFPAPIEKTISKTKGRPKAPQVYTIPPPKEQMAKDKVSLTCMITDFFPEDITVEWQWNGQPAENYKNTQPIMDTDGSYFVYSDLNVQKSNWEAGNTFTCSVLHEGLHNHHTEKSLSHSPGK
light 2: B1 light 1 with R18S, R24Q, K45E, T51G, R53E, Q79E, P80A, I83A, T93S, K107E
notes: Product of mouse IgG1-type Fab arm exchange (D399K on one H chain, K409D on the other); formation efficiency 89.2%, so the preparation may hold some homo variant; also called mIgG1mP3/mN3; mP3/mN3
As usually defined, the Kd is the equilibrium constant for the complex coming apart. Higher therefore signals a looser complex. Consider B1, for which the “fold KD” value in test [1] came to 1.2 fold. For the same molecule, the Kd was determined as 2100 nM in test [2], 670 nM in test [7] and 670 nM in [8]. Also, the binding result in test [3] and in test [4] was “no binding” each time. Further, the “KD fold mFcgRIII” value in test [5] came out at 1.2 fold. Also, the “KD fold mFcgRII” value in test [6] was found to be 1.2 fold.

B2: MRAH-mIgG1/MRAL-mk1 (antibody)
heavy: B1 heavy 1 with K395D
light: B1 light 1
notes: Control with mouse IgG1 H chain constant region and mouse kappa constant region; also called naturally occurring mIgG1
For the molecule B2, the Kd in test [2] turned out to be 2500 nM; in test [7], 790 nM; in test [8], 820 nM. Further, the “KD fold mFcgRIII” value in test [9] amounted to 1 fold. Further, the “KD fold mFcgRII” value in test [10] is 1 fold. In addition, the binding result in test [3] and in test [4] was “no binding” in each case. Also, the “fold KD” value in test [11] is 1 fold.

B3: MRAH-mIgG1mP4/MRAL-mk1//H54-mIgG1mN4/L28-mk1 (bispecific antibody)
heavy 1: B1 heavy 1 with K395R
light 1: B1 light 1
heavy 2: B1 heavy 2 with D405E
light 2: B1 light 1 with R18S, R24Q, K45E, T51G, R53E, Q79E, P80A, I83A, T93S, K107E
notes: Product of mouse IgG1-type Fab arm exchange (D399R on one H chain, K409E on the other); formation efficiency 89.9%, so the preparation may hold some homo variant; also called mIgG1mP4/mN4; mP4/mN4
Take B3: in test [1], the “fold KD” value is 1.3 fold. For the same molecule, the Kd stood at 1900 nM in test [2], 680 nM in test [7] and 670 nM in [8]. Further, the binding result in test [3] and in test [4] was “no binding” throughout. Further, in test [5], the “KD fold mFcgRIII” value came to 1.2 fold. Besides, in test [6], the “KD fold mFcgRII” value stood at 1.2 fold.

The record behind these values is patent publication US20160229915A1 (Chugai, published 2016).
